Residue numbers refer to the chain shown, from its start. Names may count otherwise. Read-outs that look alike come from different tables or passages of the source.
What was measured:
[1] = molecular target: T1, SARS-CoV-2 RBD protein Avi-tag biotinylated (AcroBiosystems SPD-C82E9) (SARS-CoV-2, UniProt P0DTC2 330-518)
[2] = molecular target: T2, monomeric human Fc-fused SARS-CoV-2_RBD-SD1 (SARS-CoV-2, UniProt P0DTC2 319-591); assay: BLI, RBD-SD1-mono-hFc on AHC tips
[3] = molecular target: T2, monomeric human Fc-fused …; assay: BLI kinetics on RBD-mono-hFc, 1:1 fit, mean ± SD, n = 2 [upper graph]
[4] = molecular target: T2, monomeric human Fc-fused …; assay: BLI kinetics on RBD-mono-hFc, 1:1 fit, mean ± SD, n = 2
[5] = molecular target: T3, Mouse IgG1 Fc fused SARS-CoV-2 RBD (Sino Biological) (SARS-CoV-2; mouse, UniProt P0DTC2 330-518)
[6] = molecular target: T2, monomeric human Fc-fused …; assay: BLI kinetics on RBD-mono-hFc, 1:1 fit, mean ± SD, n = 2 [lower graph]
[7] = molecular target: T3, Mouse IgG1 Fc fused SARS-CoV-2 RBD …; remark: listed apart in the source
[8] = molecular target: T1, SARS-CoV-2 RBD protein Avi-tag …; remark: listed apart in the source
[9] = molecular target: T1, SARS-CoV-2 RBD protein Avi-tag …; remark: listed apart in the source
[10] = molecular target: WT SARS-CoV-2 RBD displayed on Saccharomyces cerevisiae (SARS-CoV-2, UniProt P0DTC2 331-518)
[11] = molecular target: T1, SARS-CoV-2 RBD protein Avi-tag …; remark: listed apart in the source
[12] = molecular target: T1, SARS-CoV-2 RBD protein Avi-tag …; remark: listed apart in the source
[13] = molecular target: T3, Mouse IgG1 Fc fused SARS-CoV-2 RBD …; remark: listed apart in the source
[14] = molecular target: T3, Mouse IgG1 Fc fused SARS-CoV-2 RBD …; remark: listed apart in the source
[15] = molecular target: SARS-CoV-2 spike, full length, on cells or on pseudotyped/authentic virus (SARS-CoV-2, UniProt P0DTC2 14-1273); assay: cell-based or functional assay
[16] = molecular target: T3, Mouse IgG1 Fc fused SARS-CoV-2 RBD …; assay: BLI, RBD-mFc on AMC tips, global 1:1 fit

B1: VHH3.36 (VHH)
VHH: QVQLQESGGGLVQAGDSLRLSCVVSGGTFSSYAMGWFRQAPGKERELVAAINWGGISVYYADSVKGRFTISRDNAENTVYLQMNSLKPEDTAVYYCAADPKGWSEWDMEYWGKGTQVTVSS
**Q.** B1 was tested. Which IC50 [1] did it give?
**A.** Its IC50 is 0.156 nM.

B2: VHH3.29 (VHH)
VHH: QVQLQESGGGLVQAGGSLRLSCVASGRTFSSGGMGWFRQAPGQEREFVAGIGWAGLSSYYLDSVKGRFTISLDNAKNTVYLQMNMLKPEDTGVYYCAADDHGWSAAGMDYLGQGTQVTVSS
**Q.** B2 was tested. Which IC50 [1] did it give?
**A.** Its IC50 is 0.389 nM.

B3: VHH3.149 (VHH)
VHH: QVQLQESGGGLVQAGGSLKLSCAASGRTFSSYALGWFRQAPGTEREFVSAINWFGAPTYYADSVKGRFTISRDNAKNTVYLQMDNLKPEDTAVYYCAADSKGWDPQDMDYWGKGTQVTVSS
**Q.** B3 was tested. Which IC50 [1] did it give?
**A.** Its IC50 is 0.334 nM.

B4: VHH3.77 (VHH)
VHH: QVQLQESGGGLVQAGGSLRLSCVSSGRAFGNGAVGWFRQGPGRPREFVATVSWNGGGTYFAESVRGRFTISRDNAKNTVYLQMNNLKPEDTAVYYCALAGEGTVVSEWDYDYEYWGQGTQVTVSS
**Q.** Which results are given for B4?
**A.** Kd [2]: 0.15 nM; Kd [3]: 0.153 nM; koff [3]: 0.000297 s⁻¹; kon [3]: 1.96e+06 M⁻¹ s⁻¹; IC50 [1]: 0.237 nM

B5: VHH3BE4 (VHH)
VHH: B4 VHH with S24A, G40A, P44E, F60Y, N77S, N85S, L98S, E113D
**Q.** B5 was tested. Which IC50 [1] did it give?
**A.** The IC50 was 0.212 nM.

B6: VHH3.17 (VHH)
VHH: B4 VHH with Q13E, R19T, V23A, S24A, N31D
**Q.** With B6 as the binder, how does the koff [4] read?
**A.** Its koff is 0.000358 s⁻¹.

**Q.** What about the kon [4] of the same binder?
**A.** The kon was 1.54e+06 M⁻¹ s⁻¹.

**Q.** And the Kd [2]?
**A.** Its Kd is 0.234 nM.

**Q.** What about the IC50 [1] of the same binder?
**A.** The IC50 was 0.316 nM.

B7: VHH3.144 (VHH)
VHH: B4 VHH with S24A, G40A, P44E, F60Y, N77S, N85S, L98S, E113D
**Q.** B7 was tested. Which IC50 [1] did it give?
**A.** The IC50 was 0.397 nM.

B8: VHH3.38 (VHH)
VHH: QVQLQESGGGLVQAGGSLRLSCAASGGTFNNYAMAWFRQAPGQERELVAAMFWSGLPKYYADSVKGRFTISTDDAKNTVYLQMNGLKPEDTAVYYCAADSRGWSDVGGMDYWGKGTQVTVSS
**Q.** Which IC50 [1] does the source give for B8 here?
**A.** The IC50 was 0.769 nM.

B9: VHH3.47 (VHH)
VHH: QVQLQESGGGLVQAGDSLRLSCAASGHNFSTYAMAWFRQAPGTERELVAAISENDVMRYYADSVKGRFTISRDNAKNMAYLQMNSLKVEDTAVYLCAADPKGWSEWDMDYWGKGTQVTVSS
**Q.** With B9 as the binder, how does the IC50 [1] read?
**A.** Its IC50 is 0.297 nM.

B10: VHH3.83 (VHH)
VHH: QVQLQESGGGLVQPGDSLRLSCVLSGGVFTSYAMGWFRQAPGKEREFLAAITFNSDATYYADSVKGRFTISRDNAKNTAYLQMNSLKPNDTAVYSCAAGGNHYNPQYYHDYDKYDHWGQGTQVTVSS
**Q.** B10 was tested. Which IC50 [1] did it give?
**A.** The IC50 was 0.162 nM.

B11: VHH3.35 (VHH)
VHH: QVQLQESGGGLVQAGGSLTLSCEVSGRTNDNYGVGWFRQVPGAERELVAAIRWSSISRYYKDSVKGRFTISRDNAKNTVYLQMDMLKAEDTAVYYCAADPAGWSEFGMEYWGKGTQVTVSS
**Q.** With B11 as the binder, how does the IC50 [1] read?
**A.** Its IC50 is 0.406 nM.

B12: VHH3.55 (VHH)
VHH: B11 VHH with T19R, A88P, V93A
**Q.** Which IC50 [1] does the source give for B12 here?
**A.** The IC50 was 0.322 nM.

B13: D72-52: VHH72_h1_E1D_S56A-([change])2-hIgG1hinge_EPKSCdel-hIgG1Fc_LALAPG_Kdel (Fc fusion)
chain: DVQLVESGGGLVQPGGSLRLSCAASGRTFSEYAMGWFRQAPGKEREFVATISWSGGATYYTDSVKGRFTISRDNAKNTVYLQMNSLRPEDTAVYYCAAAGLGTVVSEWDYDYDYWGQGTLVTVSSGGGGSGGGGSDKTHTCPPCPAPEAAGGPSVFLFPPKPKDTLMISRTPEVTCVVVDVSHEDPEVKFNWYVDGVEVHNAKTKPREEQYNSTYRVVSVLTVLHQDWLNGKEYKCKVSNKALGAPIEKTISKAKGQPREPQVYTLPPSRDELTKNQVSLTCLVKGFYPSDIAVEWESNGQPENNYKTTPPVLDSDGSFFLYSKLTVDKSRWQQGNVFSCSVMHEALHNHYTQKSLSLSPG
**Q.** With B13 as the binder, how does the IC50 [5] read?
**A.** Its IC50 is 0.199 µg/mL.

B14: VHH3.115 (VHH)
VHH: QVQLQESGGGLVQTGGSLRLSCAASGLTFSDIAMGWFRQAPGREREFVATISWSGGGTYYAEPVRGRFAISRDNAKNTVYLQMNSLKPEDTAVYYCAAAGAGTVVSEWDYDYDYWGQGTQVTVSS
**Q.** Which results are given for B14?
**A.** Kd [2]: 0.734 nM; koff [6]: 0.00157 s⁻¹; kon [6]: 2.14e+06 M⁻¹ s⁻¹; IC50 [1]: 0.409 nM

B15: VHH72_h1(E1D,S56A) sequence optimized (SO), monovalent (VHH)
VHH: DVQLVESGGGLVQPGGSLRLSCAASGRTFSEYAMGWFRQAPGKEREFVATISWSGGATYYTDSVKGRFTISRDNAKNTVYLQMNSLRPEDTAVYYCAAAGLGTVVSEWDYDYDYWGQGTLVTVSS
**Q.** How did the koff [7] turn out when B15 was run?
**A.** Its koff is 0.00568 s⁻¹.

**Q.** And the koff [8]?
**A.** Its koff is 0.0024 s⁻¹.

B16: PB9677 hIgG4 FALA (Fc fusion)
VHH: B15 VHH
**Q.** Which “IC50 (read off the curve)” value [9] does the source give for B16 here?
**A.** The value was roughly 0.02 µg/mL.

B17: VHH72_h1(S56A) (VHH)
VHH: B15 VHH with D1E
**Q.** Which results are given for B17?
**A.** EC50 (read off the curve) [10]: ~0.3 µg/mL; Kd [11]: 3.09 nM; fold improvement of KD against VHH72 h1 [11]: 3 fold; koff [11]: 0.00069 s⁻¹; Kd [5]: 5.26 nM; fold better competition than VHH72-wt and VHH72_h1 [5]: 7 fold; fold improvement of KD against VHH72 h1 [5]: > 6 fold

B18: VHH72_h1 (E1D) (VHH)
VHH: B15 VHH with A57S
**Q.** How did the Kd [12] turn out when B18 was run?
**A.** The Kd was 10.4 nM.

**Q.** And the koff [12]?
**A.** Its koff is 0.00204 s⁻¹.

**Q.** And the Kd [7]?
**A.** Its Kd is 31.1 nM.

**Q.** What about the koff [7] of the same binder?
**A.** The koff was 0.0313 s⁻¹.

**Q.** What about the koff [8] of the same binder?
**A.** Its koff is 0.00354 s⁻¹.

B19: VHH2.50 (VHH)
VHH: B15 VHH with D1Q, V5Q, P14A, E31S, Y32I, A57S, T61A, R87K, L120Q
**Q.** How did the IC50 [1] turn out when B19 was run?
**A.** The IC50 was 27.7 nM.

B20: D72-22: h1-VHH72-[change]-GS-hIgG1hinge-hIgG1Fc (Fc fusion)
chain: EVQLVESGGGLVQPGGSLRLSCAASGRTFSEYAMGWFRQAPGKEREFVATISWSGGATYYTDSVKGRFTISRDNAKNTVYLQMNSLRPEDTAVYYCAAAGLGTVVSEWDYDYDYWGQGTLVTVSSGS
**Q.** What does the source list for B20?
**A.** EC50 [13]: 0.00439 µg/mL; Kd [14]: 0.0471 nM; koff [14]: 4.87e-05 s⁻¹; kon [14]: 1.07e+06 M⁻¹ s⁻¹; IC50, plaque reduction neutralization, authentic SARS-CoV-2 [15]: 0.12 µg/mL

B21: D72-17: h1-VHH72-GS-hIgG1hinge-hIgG1Fc-L234A-L235A-P329G (Fc fusion)
chain: B20 chain with A57S
notes: ExpiCHO
**Q.** Which results are given for B21?
**A.** Kd [16]: 0.1 nM; koff [16]: 0.000178 s⁻¹; kon [16]: 1.77e+06 M⁻¹ s⁻¹; EC50 [13]: 0.00836 µg/mL

B22: D72-15: VHH72-GS-hIgG1hinge-hIgG1Fc-L234A-L235A-P329G (Fc fusion)
chain: B20 chain with E1Q, V5Q, P14A, A57S, R87K, E89D, L120Q
notes: ExpiCHO
**Q.** For B22, which Kd [16] is on record?
**A.** The Kd was 0.13 nM.

**Q.** What about the koff [16] of the same binder?
**A.** The koff was 0.000297 s⁻¹.

**Q.** And the kon [16]?
**A.** Its kon is 2.29e+06 M⁻¹ s⁻¹.

**Q.** And the EC50 [13]?
**A.** The EC50 was 0.0108 µg/mL.

— patent publication US20230227537A1 (VIB VZW, published 2023)
